{"source": "patent US20220332795A1", "about": "(ARO BIOTHERAPEUTICS, published 2022)", "binders": {"B1": {"name": "SEQ ID NO 23 (designed binder, not shown: small tags and cut ends)", "chain": "MLPAPKNLVVSRVTEDSARLSWTAPDAAFDSFAIWYHEWYGDGEAIVLTVPGSERSYDLTGPKPGTEYRVRISGVKGGFESGPLSAIFTT", "notes": "FN3 domain, hit of the apical domain panning"}, "B2": {"name": "SEQ ID NO 16 (designed binder, not shown: small tags and cut ends)", "chain": "MLPAPKNLVVSRVTEDSARLSWTAPDAAFDSFGIAYREFRPSGEAIVLTVPGSERSYDLTVETGYRNEVVICGVKGGPWSGPLSAIFTT", "notes": "as for B1"}, "B3": {"name": "SEQ ID NO 24 (designed binder, not shown: small tags and cut ends)", "chain": "MLPAPKNLVVSRVTEDSARLSWTAPDAAFDSFMIRYQEGTRWGEAIVLTVPGSERSYDLTGLKPGTEYIVMIAGVKGGQISLPLSAIFTT", "notes": "as for B1"}, "B4": {"name": "SEQ ID NO 35 (designed binder, not shown: small tags and cut ends)", "chain": "MLPAPKNLVVSRVTEDSARLSWTAPDAAFDSFPISYIESIADGEAIVLTVPGSERSYDLTGLKPGTEYWVAIVGVKGGPFSWSLSAIVTT", "notes": "as for B1"}, "B5": {"name": "SEQ ID NO 14 (designed binder, not shown: small tags and cut ends)", "chain": "MLPAPKNLVVSRVTEDSARLSWTAPDAAFDSFPIYYVENVVWGEAIVLTVPGSERSYDLTGLKPGTEYWEVIIGVKGGQCSRPLSAIFTT", "notes": "as for B1"}, "B6": {"name": "SEQ ID NO 31 (designed binder, not shown: small tags and cut ends)", "chain": "MLPAPKNLVVSRVTEDSARLSWTAPDAAFDSFTIEYSEHPIDGEAIPLFVPGSERSYDLTGLKPGTEYYVRIHGVKGGWFSHPLWAFFTT", "notes": "as for B1"}, "B7": {"name": "SEQ ID NO 27 (designed binder, not shown: small tags and cut ends)", "chain": "MLPAPKNLVVSRVTEDSARLSWTAPDAAFDSFRISYAETVRQGEAIVLTVPGSERSYDLTVETGYRNWVMILGVKGGPGSLPLSAIFTT", "notes": "as for B1"}, "B8": {"name": "SEQ ID NO 22 (designed binder, not shown: small tags and cut ends)", "chain": "MLPAPKNLVVSRVTEDSARLSWTAPDAAFDSFWYLELQFAGEAIVLTVPGSERSYDLTGLKPGTEYNVPITGVKGGIISFPLSAIFTT", "notes": "as for B1"}, "B9": {"name": "SEQ ID NO 20 (designed binder, not shown: small tags and cut ends)", "chain": "MLPAPKNLVVARVTEDSARLSWTAPDAAIDSFPIDYSEYWWGGEAIVLTVPGSERSYDLTGLKPGTEYPVLITGVKGGYRSGPLSAIFTT", "notes": "as for B1"}, "B10": {"name": "SEQ ID NO 100 (designed binder, not shown: small tags and cut ends)", "chain": "MLPAPKNLVVSRVTEDSARLSWTAPDAAFDSFYIWYEEVMYLGEAIVLTVPGSERSYDLTGLKPGTEYNVPIPGVKGGHSSPPLSAIFTT", "notes": "as for B1"}, "B11": {"name": "SEQ ID NO 25 (designed binder, not shown: small tags and cut ends)", "chain": "B10 chain with Y33P, E37L, V39K, M40S, L42Q, N69V, P73I, H79R, S80D, P82C", "notes": "as for B1"}, "B12": {"name": "SEQ ID NO 21 (designed binder, not shown: small tags and cut ends)", "chain": "MLPAPKNLVVSRVTEDSARLSWTAPDAAFDSFSIRYNEFIVAGEAIVLTVPGSERSYDLTGLKPGTEYDVPIAGVKGGGASWPLSAIVTT", "notes": "as for B1"}, "B13": {"name": "SEQ ID NO 2 (designed binder, not shown: small tags and cut ends)", "chain": "MLPAPKNLVVSEVTEDSARLSWQGVARAFDSFMINYSELFWMGEAIVLTVPGSERSYDLTGLKPGTEYVVRIKGVKGGKGSWPLHAHFTT", "notes": "as for B1"}}, "note": "Substitutions are numbered along the chain they refer to.", "data": [{"biological_target": "T1, recombinant biotinylated CD71 extracellular domain (Sino Biologics) with an N-terminal 6His tag (human, UniProt P02786 89-760, biotinylated (site not stated))", "T1 construct": "extracellular domain; also called hCD71; huCD71 ECD", "T1 sequence (P02786 other isoform, or with tags, fused parts or gaps)": "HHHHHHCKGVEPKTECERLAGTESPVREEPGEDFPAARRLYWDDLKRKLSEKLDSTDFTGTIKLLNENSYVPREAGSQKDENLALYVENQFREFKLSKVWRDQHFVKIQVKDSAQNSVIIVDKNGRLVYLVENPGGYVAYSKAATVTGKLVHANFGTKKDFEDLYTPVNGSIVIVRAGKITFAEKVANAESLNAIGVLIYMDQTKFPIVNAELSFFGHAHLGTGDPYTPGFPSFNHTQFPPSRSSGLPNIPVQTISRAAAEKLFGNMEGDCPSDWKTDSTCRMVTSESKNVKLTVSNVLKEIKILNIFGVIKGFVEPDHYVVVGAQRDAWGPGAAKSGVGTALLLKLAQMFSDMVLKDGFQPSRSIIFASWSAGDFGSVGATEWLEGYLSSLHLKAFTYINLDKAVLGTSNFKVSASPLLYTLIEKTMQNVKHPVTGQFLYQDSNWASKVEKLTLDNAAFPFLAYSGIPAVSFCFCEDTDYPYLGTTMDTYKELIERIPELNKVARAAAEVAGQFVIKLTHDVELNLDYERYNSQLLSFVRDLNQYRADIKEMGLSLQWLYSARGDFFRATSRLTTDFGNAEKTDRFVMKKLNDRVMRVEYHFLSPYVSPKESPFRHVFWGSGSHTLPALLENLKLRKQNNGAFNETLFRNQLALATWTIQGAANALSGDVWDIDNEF", "assay": "primary solution ELISA screen, signal on hCD71 over HSA", "values": [{"binder": "B1", "hCD71:HSA": 110}, {"binder": "B2", "hCD71:HSA": 95}, {"binder": "B3", "hCD71:HSA": 374}, {"binder": "B4", "hCD71:HSA": 106}, {"binder": "B5", "hCD71:HSA": 1280}, {"binder": "B6", "hCD71:HSA": 138}, {"binder": "B7", "hCD71:HSA": 127}, {"binder": "B8", "hCD71:HSA": 105}, {"binder": "B9", "hCD71:HSA": 43}, {"binder": "B10", "hCD71:HSA": 79}, {"binder": "B11", "hCD71:HSA": 58}, {"binder": "B12", "hCD71:HSA": 85}, {"binder": "B13", "hCD71:HSA": 14}]}, {"biological_target": "T1, recombinant biotinylated CD71 …", "assay": "primary solution ELISA screen", "units": {"RLU": "RLU"}, "values": [{"binder": "B1", "RLU": "1.39e+06"}, {"binder": "B2", "RLU": 657000}, {"binder": "B3", "RLU": "2.45e+06"}, {"binder": "B4", "RLU": "1.99e+06"}, {"binder": "B5", "RLU": "1.4e+06"}, {"binder": "B6", "RLU": 642000}, {"binder": "B7", "RLU": 297000}, {"binder": "B8", "RLU": "3.15e+06"}, {"binder": "B9", "RLU": 791000}, {"binder": "B10", "RLU": 408000}, {"binder": "B11", "RLU": 222000}, {"binder": "B12", "RLU": 579000}, {"binder": "B13", "RLU": 383000}]}]}
